Where two headings read alike, the source gives them in different places.

In general, Kd refers to the equilibrium constant for the complex coming apart. For orientation: koff means a measure of how fast the partners let go of each other. Higher therefore signals fast dissociation. For orientation: kon means the rate constant with which the complex forms. High values mean fast association, low ones slow association.

Assay [1] concerns the target T1, recombinant human TNFalpha (human, UniProt P01375 77-233). The experiment in a line: cell-based or functional assay.
The target of assay [2] is T1, recombinant human TNFalpha. The experiment in a line: cell-based or functional assay. The source holds these as a separate data set.
The target of assay [3] is T1, recombinant human TNFalpha. The experiment in a line: cell-based or functional assay. This is another data set of the same source.
Assay [4] addresses T2, Human TNFa N-his trimers (His-tagged TNF, produced at ESBATech) (human, UniProt P01375 77-233).
T2 construct: Captured as trimers on a Ni-NTA sensor chip by the N-terminal His tags in the Biacore assay of the general methods; also called human TNFα; human TNF alpha; not shown: N-terminal His tag
The experiment in a line: SPR (BIAcore), His-tagged human TNF captured on NTA chip, scFv as analyte; units taken from paragraph 184. The procedure:
(§1) For binding affinity measurements at pH5 and pH 7.4 (data not shown), surface Plasmon resonance measurements with BIAcore™-T 100 were employed using a NTA sensor chip and His-tagged TNF (produced at ESBATech). The surface of the NTA sensor chip consists of a carboxymethylated dextran matrix pre-immobilized with nitrilotriacetic acid (NTA) for capture of histidine tagged molecules via Ni2+NTA chelation. Human TNFa N-his trimers (5 nM) are captured by the nickel via their N-terminal his-tags and ESBA105 (analyte) is injected at several concentrations ranging from 30 nM to 0.014 nM in 3 fold serial dilution steps. At the regeneration step, the complex formed by nickel, ligand and analyte is washed away. This allows the use of the same regeneration conditions for different samples. The response signal is generated by surface Plasmon resonance (SPR) technology and measured in resonance units (RU). All the measurements are performed at 25° C. Sensorgrams were generated for each anti-TNF scFv sample after in-line reference cell correction followed by buffer sample subtraction. The apparent dissociation rate constant (kd), the apparent association rate constant (kₐ) and the apparent dissociation equilibrium constant (KD) were calculated using one-to-one Langmuir binding model with BIAcore T100 evaluation Software version 1.1.
For orientation: In SPR one partner is held on a chip, and binding of the other changes the refractive index at the surface.

Assay [5] concerns the target T1, recombinant human TNFalpha. The experiment in a line: cell-based or functional assay. This is another data set of the same source.
Assay [6] has as its target T2, Human TNFa N-his trimers (His-tagged …). The experiment in a line: SPR (BIAcore T100), His-tagged human TNF captured on NTA chip, scFv as analyte. The procedure:
as §1

Assay [7] has as its target T1, recombinant human TNFalpha. The experiment in a line: cell-based or functional assay. This is another data set of the same source.
Assay [8] has as its target T1, recombinant human TNFalpha. The experiment in a line: secretion ELISA on TNFα, bacterial culture supernatant not normalised for single-chain antibody content. For orientation: An ELISA detects its analyte on a solid surface through an enzyme-linked reagent.

T1 sequence (P01375 77-233 limits assumed): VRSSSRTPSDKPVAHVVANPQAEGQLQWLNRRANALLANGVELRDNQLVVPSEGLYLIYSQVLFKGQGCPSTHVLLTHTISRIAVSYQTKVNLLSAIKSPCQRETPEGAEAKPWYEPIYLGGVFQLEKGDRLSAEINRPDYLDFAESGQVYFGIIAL
T2 sequence (P01375 77-233 limits assumed): as above

In the case of Adalimumab (antibody), in assay [1], the IC50, block of cytotoxic activity (murine L929 cells, 1000 pg/ml TNF) was found to be 8.46 ng/mL. Moreover, in assay [2], the IC50, block of cytotoxic activity (human Kym-1 cells, 10 pg/ml TNF) came to 66.2 ng/mL and the IC50, block of cytotoxic activity (murine L929 cells, 1000 pg/ml TNF) was 8.45 ng/mL.

B1: EP43_max (scFv)
scFv: EIVMTQSPSTLSASVGDRVIIKCQASQSISDWLAWYQQKPGKAPKLLIYGASRLASGFPSRFSGSGSGAEFTLTISGLEPADFATYYCQQGWSDSYVDNLFGQGTKLTVLGGGGGSGGGGSGGGGSGGGGSEVQLVESGGGLVQPGGSLRLSCTVSGFSLSSGAMSWVRQAPGKGLEWVGVIISSGATYYASWAKGRFTISKDTSKNTVYLQMNSLRAEDTAVYYCARGGPDDSNSMGTFDPWGQGTLVTVSS
notes: scFv NH2-VL-(GGGGS)4-VH-COOH; also called 676
For the molecule B1, the “EC50, L929 potency assay” value in assay [3] was 1 ng/mL. Besides, in assay [4], binding was put at a Kd of 249 pM, the koff is 5.68e-05 s⁻¹ and the kon is 228000 M⁻¹ s⁻¹. Besides, the “L929* [EC50-E105/EC50-X], potency relative to ESBA105” value in assay [5] was 6.4 ratio EC50 ESBA105/EC50 X (mass units, ng/ml). In assay [6], the Kd stood at 251 pM, the dissociation rate constant (koff) is 4.48e-05 s⁻¹ and the kon is 178000 M⁻¹ s⁻¹. For the same molecule, the “L929* [EC50-E105/EC50-X], potency relative to ESBA105” value in assay [7] was 6.4 ratio EC50 ESBA105/EC50 X (mass units, ng/ml).

B2: EP43_minmax (scFv)
scFv: EIVMTQSPSTLSASVGDRVIITCQASQSISDWLAWYQQKPGKAPKLLIYGASRLASGVPSRFSGSGSGAEFTLTISSLQPDDFATYYCQQGWSDSYVDNLFGQGTKLTVLGGGGGSGGGGSGGGGSGGGGSEVQLVESGGGLVQPGGSLRLSCTVSGFSLSSGAMSWVRQAPGKGLEWVGVIISSGATYYASWAKGRFTISKDTSKNTVYLQMNSLRAEDTAVYYCARGGPDDSNSMGTFDPWGQGTLVTVSS
notes: Min graft VL with max graft VH; also called 958
Turning to B2, in assay [4], the Kd turned out to be 868 pM, the koff stood at 0.000198 s⁻¹ and the kon stood at 228000 M⁻¹ s⁻¹. Besides, the “L929* [EC50-E105/EC50-X], potency relative to ESBA105” value in assay [5] was 1.6 ratio EC50 ESBA105/EC50 X (mass units, ng/ml).

B3: 34min (scFv)
scFv (VL-linker-VH): EIVMTQSPSTLSASVGDRVIITCQSSQSVYGNIWMAWYQQKPGKAPKLLIYQASKLASGVPSRFSGSGSGAEFTLTISSLQPDDFATYYCQGNFNTGDRYAFGQGTKLTVLGGGGGSGGGGSGGGGSGGGGSEVQLVESGGGLVQPGGSLRLSCAASGFTISRSYWICWVRQAPGKGLEWVSCIYGDNDITPLYANWAKGRFTISRDNSKNTLYLQMNSLRAEDTAVYYCAKLGYADYAYDLWGQGTLVTVSS
notes: also called EP34min; EP34_min
Consider B3, for which the binding result in assay [8] is “binds”.

(Values after US20140193400A1 (ESBATECH AN ALCON BIOMEDICAL RESEARCH UNIT, published 2014).)
